Data from US20220332804A1 (CSL INNOVATION, published 2022).
Positions count from the first letter of the chain named.

Legend:
Experiment in all cases: SPR, KD relative to WT C2;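 note: biacore SPR at 37 °C, anti-C2 mAbs captured on anti-human IgG chips with alanine or serine point mutants of C2 as analyte, KD from 1:1 fit compared with wild-type C2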
human C2 N424A = target: T1, human C2 N424A (human, UniProt P06681 21-752)
T1 sequence: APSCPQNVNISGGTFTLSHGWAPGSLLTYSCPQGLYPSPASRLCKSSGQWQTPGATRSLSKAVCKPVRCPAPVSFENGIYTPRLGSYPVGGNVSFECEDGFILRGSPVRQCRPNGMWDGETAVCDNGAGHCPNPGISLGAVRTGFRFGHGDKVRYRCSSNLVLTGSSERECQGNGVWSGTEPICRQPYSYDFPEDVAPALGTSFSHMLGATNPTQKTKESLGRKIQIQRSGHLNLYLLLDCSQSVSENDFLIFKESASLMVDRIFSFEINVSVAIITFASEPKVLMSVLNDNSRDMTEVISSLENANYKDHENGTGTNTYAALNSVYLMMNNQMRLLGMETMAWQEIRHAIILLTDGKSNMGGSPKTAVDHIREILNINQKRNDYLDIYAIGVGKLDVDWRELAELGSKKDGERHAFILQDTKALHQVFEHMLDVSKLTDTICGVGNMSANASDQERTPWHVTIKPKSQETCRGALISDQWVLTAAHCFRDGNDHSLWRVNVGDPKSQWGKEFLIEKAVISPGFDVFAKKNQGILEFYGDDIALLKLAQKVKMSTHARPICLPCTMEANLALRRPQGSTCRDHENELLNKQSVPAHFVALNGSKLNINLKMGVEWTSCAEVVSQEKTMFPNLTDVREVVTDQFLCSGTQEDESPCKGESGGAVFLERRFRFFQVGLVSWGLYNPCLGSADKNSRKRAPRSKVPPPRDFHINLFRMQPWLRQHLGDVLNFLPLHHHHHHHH
Protocol: (§1) Surface plasmon resonance (SPR, Biacore) was used for all binding affinity analyses. In brief, goat anti-human IgG was directly immobilised onto the carboxymethyl dextran surface of CM5 sensorchips to approximately 12,000 RU using standard NHS/EDC chemistry at pH 5. The immobilised antibody surface was pre-conditioned with ten injections of polyclonal human IgG (Privigen 60 s) prepared at 1 μg/mL. Ligands (anti-C2 mAbs) were captured at the beginning of each cycle as described below. An adjacent spot or flow cell in which only Polyclonal IgG was capture was used as a reference surface. The goat anti-human IgG Fc antibody surface was regenerate in 100 mM H3PO4, injected for 45 seconds at the end of each cycle. Experiments were performed at 37° C. and the flow rate of each experiment was kept constant at 30 μL/min.
(§2) Sensogram data was double-referenced against a reference anti-IgG surface (i.e. minus anti-C2 mAb) and blank buffer injections obtained within each experiment. The binding data was fit to 1:1 (kinetic or steady-state) model using local Rmax and null refraction index (RI=0) when appropriate. Buffers and solutions were filtered (0.22 μm) prior to use.

human C2 V418A = target: T2, human C2 V418A (human, UniProt P06681 21-752)
T2 sequence: T1 sequence with V398A, A404N
Protocol: as §1, §2

human C2 E686A = target: T3, human C2 E686A (human, UniProt P06681 21-752)
T3 sequence: T1 sequence with A404N, E666A
Protocol: as §1, §2

human C2 A436S = target: T4, human C2 A436S (human, UniProt P06681 21-752)
T4 sequence: T1 sequence with A404N, A416S
Protocol: as §1, §2

B1: RF16-242 (antibody, human IgG4 S228P, lambda, V domains shown)
VH: EVQLLQSGAEVKKPGESLKISCKGSGYSFTSYWIGWVRQMPGKGLEWMGIIYPGDSDTRYSPSFQGQVTISADKSISTAYLQWSSLKASDTAMYYCARRGHYGDYFDYWGQGTLVTVSS
VL: SYELTQPPSVSVSPGQTARITCSGDALPKKYAYWYHQKSGQAPVLVIYEDRRRPSEIPERFSGSSSGTMATLTITGAQVEDEGVYFCYSRDRAGNQRVFGGGTQLTVLG
notes: pH-dependent anti-C2 antibody from a phage display library
Fold diff (human C2 N424A): 1 fold
Fold diff (human C2 V418A): 1 fold
Fold diff (human C2 E686A): 5 fold
Fold diff (human C2 A436S): 1 fold
